The text below walks through data of article PMC10465447, “Magnetically controlled graphene field-effect transistor biosensor for highly sensitive detection of cardiac troponin I”.

The target in the data set is cardiac troponin I (CTNI) (UniProt P19429 2-210). The data set is described as follows: pull-down with anti-CTNI antibody magnetic beads, supernatant fluorescence; 2 uM aptamer (10 uL), 10 uM CTNI (100 uL); fluorescence about 1400 to 1050 A.U.; PBS pH 7.4 washes; binding buffer not stated; room temperature 2 h (solution pull-down); 30 min bead reaction on sensor. The following applies: protein: commercial; label: 3'-6-FAM.
Sequence of cardiac troponin I (CTNI) (P19429 2-210): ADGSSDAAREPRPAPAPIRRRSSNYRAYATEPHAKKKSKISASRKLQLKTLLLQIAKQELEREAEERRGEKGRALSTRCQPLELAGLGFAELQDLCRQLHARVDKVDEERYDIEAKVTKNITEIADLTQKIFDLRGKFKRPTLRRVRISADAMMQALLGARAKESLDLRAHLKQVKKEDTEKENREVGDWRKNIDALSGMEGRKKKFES

Regarding CGTGCAGTACGCCAACCTTTCTCATGCGCTGCCCCTCTTA (ssDNA, 5'-NH2) [CTNI aptamer], the binding result is given as “binds”.
